According to patent publication CN111690058A:
pKd: −log10 of the molar value.

Molecular target: S蛋白RBD-His (319Arg-532Asn) (2019-nCoV (SARS-CoV-2)) (UniProt P0DTC2)
Experiment: BLI (Fortebio), RBD-His on Anti-Penta-HIS sensor, antibody in solution

**Q.** Which results are given for 对照抗体CR3022 (antibody)?
**A.** pKd: 8.62; koff: 0.000278 s⁻¹; kon: 115000 M⁻¹ s⁻¹
